# Reference: the DeepSol protein solubility set
# Test: soluble on expression in E. coli; label from the status in PepcDB or PDB records
row,Sequence,soluble on expression in E. coli
1,GPGSMEWSSQSALPGVEGSPGYGRLCSATSGGVGAFQQFSPATAATVGDTTSVPTEAPSSVSITVGEAMDGVALQCERRGLTNAATWLSEMSLHALPSLLATPLQACSYGGHGGNSLFSPLHRAIHLDSGVFGDHAIAGGVRSTPSAGWQRLHRVALGYFIKGEYQRCHHLILREVMRNTAVGSSCGVPLPSTTQRTWPMPAGEVPDNEGGLSLPLPEVVRGFRTTTLPPLLQFLSLYALFMDGVKAKQLSNNASQGGGAESSSMGRGGQQRALHPHARVLRAYLLEAMRNPVNMLNLPSSNNSDPEPQHGDGGDDGAALHVAVGGALPGAHHTSSAKRPWTTSSAVWLASRAVSAATTTGTAAVMTAGASASRPRGNKAGQLHARYSLPLHCCLVCLLERLSSRLSSRESSGSARRRIGSGTYVGLVAYRSVPVVAHGCSAAGTSHAPGKCDVSAGGGECQPTTAVRLGRPRVPRES,not soluble
2,MISGPFLHFDPTVPLQTVMIGHPATSPLSLPSSSSSPTVADPSNIHCRVCERRYDGSQHFGIDICRACAAFFRRSVAVKKTFVCRRGTNKCELNTVSRKTTCQKCRWMRCLLVGLNVDAVVGRRSPDHVKTTSRDESVKKEDEESDTGSEGKSCEDMDVSHPIEQFQQQISFSVHRPIPTIGNPNIYTTRASLINKVLINYNEFTKSRLDVELSLKHMQQDSKVFGSTGIPIVPATREIISEIYQKQFGLLHIFLKNTFDEYAECDVQEQKRICAMFYPVLWEIESCYWTYRNMPVQPEYETLMMCTQTTYIDSKNVRYWLGNTTGLNESDIQAVEARLENLLTKARNLVLEPMHKLIIKEFEFITLLALNIWAPRNHRGCVSEDRAEQVRDALFDDLHYLYCDGLKIDKYSSRMGEMMCLHTEVQNADMSSTIKNILFSDLNAYLYSI,not soluble
3,MKKEQISTQFYEVNPHTMIIFPKKSGSIVYSEIYEVDSHYTSKFTPFELIKTSCNFFGSSYDGGRRNGIPKIKTSSQKDVFILLLYRRNSISVTNY,not soluble
4,MSDNNDRMYELEYPSPEVSGQTAGGPTLIVALQGYADAGHAVESSSSHLMDALDHRLIASFNNDELIDYRSRRPVVVIEHNEVTSMDELNLGLHVVRDNDNKPFLMLSGPEPDLRWGDFSNAVVDLVEKFGVENTICLYAAPMTVPHTRPTVVTAHGNSTDRLKDQVSLDTRMTVPGSASLMLEKLLKDKGKNVSGYTVHVPHYVSASPYPAATLKLLQSIADSADLNLPLLALERDAEKVHRQLMEQTEESSEIQRVVGALEQQYDSE,not soluble
5,MHCPFCDTEETKVIDSRLVSDGYQVRRRRECGHCHERFTTFEMAELIIPKIIKTDGTREPFNEDKLRSGIQHALEKRPVSADDVEKAINHIILQLRATGEREVPSKLVGKLAMNELKKLDKVAYIRFASVYLSFDDIDQFTIEIEKLKD,not soluble
6,MPQGSALSDTERAQLDVMKLLNVSLHEMSRKISRSRHCIRVYLKDPVSYGTSKRAPRRKALSVRDERNVIRAASNSCKTARDIRNELQLSASKRTILNVIKRSGVIVRQKLRPAPLLSADHKLKRLEFAKNNMGTNWSKVVFSDEKKFNLDGPDGCRYYWRDLRKEPMVFSRRNFGGGTVMVWGAFTEKKKLEIQFVSSKMNSTDYQNVLELELSKYLRHYSGKDFRFQQDNATIHVSNSTRDYFKLKKINLLDWPARSPDLNPIENLWGILVRIVYAQNKTYPTVASLKQGILDAWKSIPDNQLKSLVRSMEDRLFEIIRTQGNPINY,not soluble
7,MGSDKIHHHHHHMHACGDAVLFLPPNPFLDLRPVPHTSWARLPPMIRLAVLSDLHANLEATLAVHADVQRRGIQEIWVLGDLVGKGPRPREVVEWTQAHASRVIQGNWDARVAGATNRPQDLWPRSKLTPAQLAYLAGLPYGIEEQFSGAWWRFVHASSKGLFHRLYPHSSLAEQLEAYMPNPQFGLKVHADALVYADVHETLMLDVEGRPLINTGSVGNPLDSTLPSYLILEFDPHSPAHSATFVRLTYNRDAEIAAAEASGMPFTREYVAELLTGAYQKRRARTGE,not soluble
8,MAHHHHHHMFHLWPLRPQPNRKPLGSKVVCWPQRRQIPPAPRQVWISQTRRRGPPCSVKEGEPSWRQGTRPDWPELKRSQRQSTAGRATDLSVDKAIPFGALLPCGEASKQHQQQQPNATGNWHDDADAPKEGLETN,soluble
9,MAEKFKIIMTEALSLYIWGCNILNTEKLETLLGFYKQYKALSEYIDKKYKLSLNDLAVLDLTMKHCKDEKVLMQSFLKTAMDELDLSRTKLLVSIRRLIEKERLSKVRSSKDERKIYIYLNNDDISKFNALFEDVEQFLNI,not soluble
